Laboratory results: US20260242735A1 (UNIVERSIT T BASEL, published 2026)

B1: Refmab #6 (antibody, V domains shown)
VH: QVQLQQPGAEVVKPGASVKMSCKASGYTFTSYYIHWIKQTPGQGLEWVGVIYPGNDDISYNQKFQGKATLTADKSSTTAYMQLSSLTSEDSAVYYCAREVRLRYFDVWGQGTTVTVSS
VL: EIVLTQSPGSLAVSPGERVTMSCKSSQSVFFSSSQKNYLAWYQQIPGQSPRLLIYWASTRESGVPDRFTGSGSGTDFTLTISSVQPEDLAIYYCHQYLSSRTFGQGTKLEIK
notes: The alanine scan used IgG or Fab
B2: Refmab #5 (antibody, V domains shown)
VH: QVQLVQSGAEVKKPGASVKVSCKASGYTFTNYDINWVRQAPGQGLEWIGWIYPGDGSTKYNEKFKAKATLTADTSTSTAYMELRSLRSDDTAVYYCASGYEDAMDYWGQGTTVTVSS
VL: DIQMTQSPSSLSASVGDRVTINCKASQDINSYLSWFQQKPGKAPKTLIYRANRLVDGVPSRFSGSGSGQDYTLTISSLQPEDFATYYCLQYDEFPLTFGGGTKVEIK
notes: as for B1

Legend:
Assay in all cases: flow cytometry, HEK293-T, alanine scan;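 note: transiently transfected HEK293-T cells expressing single alanine mutants of human CD33 (alanine residues changed to serine), antibody binding fluorescence minus background, relative to wild type CD33, mean of duplicates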
human CD33 S314A = human CD33 S314A (human, UniProt P20138 18-364)
Chain of human CD33 S314A (P20138 18-364 S314A limits assumed): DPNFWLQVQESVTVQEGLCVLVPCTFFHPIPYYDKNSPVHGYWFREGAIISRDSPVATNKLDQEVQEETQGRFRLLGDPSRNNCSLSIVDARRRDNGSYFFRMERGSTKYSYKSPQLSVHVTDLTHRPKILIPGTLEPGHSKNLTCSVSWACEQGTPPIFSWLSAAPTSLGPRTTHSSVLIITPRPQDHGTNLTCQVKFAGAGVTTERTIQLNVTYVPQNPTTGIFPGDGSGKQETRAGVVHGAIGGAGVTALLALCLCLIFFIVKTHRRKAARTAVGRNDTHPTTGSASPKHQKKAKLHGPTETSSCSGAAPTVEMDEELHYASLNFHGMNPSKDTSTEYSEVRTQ
Method: (§1) An alanine scan on human CD33 was performed to the determine the residues on CD33 that are involved in binding to the antibodies investigated. […] Briefly, a mutation library of CD33 was created by high-throughput, site-directed mutagenesis. Each residue was individually mutated to alanine, with alanine codons mutated to serine. The mutant library was arrayed in 384-well microplates and transiently transfected into HEK293-T. Following transfection, cells were incubated with the indicated antibodies (IgG or Fab) at concentrations pre-determined using an independent immunofluorescence titration curve on wild type CD33. […] Binding of each antibody to each mutant clone was determined in duplicates. For each point, background fluorescence was subtracted from the raw data, which were then normalized to antibody reactivity with wild type CD33.
(§2) Critical residues for antibody binding (outlined in dark grey) were residues whose mutations led to a binding of the test Abs of less than 20%. Additional secondary residues (outlined in light grey) were identified that led to a binding of the test Abs of between 20 and 40% as compared to the wild type CD33.

human CD33 F280A = human CD33 F280A (human, UniProt P20138 18-364)
Method: as §1, §2

human CD33 K315A = human CD33 K315A (human, UniProt P20138 18-364)
Method: as §1, §2

human CD33 A328S = human CD33 A328S (human, UniProt P20138 18-364)
Method: as §1, §2

human CD33 E336A = human CD33 E336A (human, UniProt P20138 18-364)
Method: as §1, §2

human CD33 T320A = human CD33 T320A (human, UniProt P20138 18-364)
Chain of human CD33 T320A (P20138 18-364 T320A limits assumed): as the sequence (P20138 18-364 S314A limits assumed) above, with A297S, T303A counted along it
Method: as §1, §2

human CD33 S307A = human CD33 S307A (human, UniProt P20138 18-364)
Method: as §1, §2

human CD33 T331A = human CD33 T331A (human, UniProt P20138 18-364)
Method: as §1, §2

human CD33 A306S = human CD33 A306S (human, UniProt P20138 18-364)
Method: as §1, §2

human CD33 T303A = human CD33 T303A (human, UniProt P20138 18-364)
Chain of human CD33 T303A (P20138 18-364 T303A limits assumed): as the sequence (P20138 18-364 S314A limits assumed) above, with T286A, A297S counted along it
Method: as §1, §2

human CD33 L316A = human CD33 L316A (human, UniProt P20138 18-364)
Chain of human CD33 L316A (P20138 18-364 L316A limits assumed): as the sequence (P20138 18-364 S314A limits assumed) above, with A297S, L299A counted along it
Method: as §1, §2

human CD33 N344A = human CD33 N344A (human, UniProt P20138 18-364)
Chain of human CD33 N344A (P20138 18-364 N344A limits assumed): as the sequence (P20138 18-364 S314A limits assumed) above, with A297S, N327A counted along it
Method: as §1, §2

human CD33 C276A = human CD33 C276A (human, UniProt P20138 18-364)
Method: as §1, §2

human CD33 P308A = human CD33 P308A (human, UniProt P20138 18-364)
Chain of human CD33 P308A (P20138 18-364 P308A limits assumed): as the sequence (P20138 18-364 S314A limits assumed) above, with P291A, A297S counted along it
Method: as §1, §2

human CD33 S323A = human CD33 S323A (human, UniProt P20138 18-364)
Chain of human CD33 S323A (P20138 18-364 S323A limits assumed): as the sequence (P20138 18-364 S314A limits assumed) above, with A297S, S306A counted along it
Method: as §1, §2

human CD33 R291A = human CD33 R291A (human, UniProt P20138 18-364)
Method: as §1, §2

human CD33 K313A = human CD33 K313A (human, UniProt P20138 18-364)
Chain of human CD33 K313A (P20138 18-364 K313A limits assumed): as the sequence (P20138 18-364 S314A limits assumed) above, with K296A, A297S counted along it
Method: as §1, §2

human CD33 A329S = human CD33 A329S (human, UniProt P20138 18-364)
Method: as §1, §2

human CD33 S324A = human CD33 S324A (human, UniProt P20138 18-364)
Chain of human CD33 S324A (P20138 18-364 S324A limits assumed): as the sequence (P20138 18-364 S314A limits assumed) above, with A297S, S307A counted along it
Method: as §1, §2

human CD33 E321A = human CD33 E321A (human, UniProt P20138 18-364)
Method: as §1, §2

human CD33 H310A = human CD33 H310A (human, UniProt P20138 18-364)
Chain of human CD33 H310A (P20138 18-364 H310A limits assumed): as the sequence (P20138 18-364 S314A limits assumed) above, with H293A, A297S counted along it
Method: as §1, §2

human CD33 R287A = human CD33 R287A (human, UniProt P20138 18-364)
Method: as §1, §2

human CD33 T322A = human CD33 T322A (human, UniProt P20138 18-364)
Chain of human CD33 T322A (P20138 18-364 T322A limits assumed): as the sequence (P20138 18-364 S314A limits assumed) above, with A297S, T305A counted along it
Method: as §1, §2

human CD33 Q311A = human CD33 Q311A (human, UniProt P20138 18-364)
Method: as §1, §2

human CD33 V282A = human CD33 V282A (human, UniProt P20138 18-364)
Method: as §1, §2

human CD33 D335A = human CD33 D335A (human, UniProt P20138 18-364)
Chain of human CD33 D335A (P20138 18-364 D335A limits assumed): as the sequence (P20138 18-364 S314A limits assumed) above, with A297S, D318A counted along it
Method: as §1, §2

human CD33 A290S = human CD33 A290S (human, UniProt P20138 18-364)
Chain of human CD33 A290S (P20138 18-364 A290S limits assumed): as the sequence (P20138 18-364 S314A limits assumed) above, with A273S, A297S counted along it
Method: as §1, §2

human CD33 V332A = human CD33 V332A (human, UniProt P20138 18-364)
Method: as §1, §2

human CD33 E337A = human CD33 E337A (human, UniProt P20138 18-364)
Chain of human CD33 E337A (P20138 18-364 E337A limits assumed): as the sequence (P20138 18-364 S314A limits assumed) above, with A297S, E320A counted along it
Method: as §1, §2

human CD33 K283A = human CD33 K283A (human, UniProt P20138 18-364)
Method: as §1, §2

human CD33 T284A = human CD33 T284A (human, UniProt P20138 18-364)
Method: as §1, §2

human CD33 T299A = human CD33 T299A (human, UniProt P20138 18-364)
Method: as §1, §2

human CD33 I281A = human CD33 I281A (human, UniProt P20138 18-364)
Method: as §1, §2

human CD33 C274A = human CD33 C274A (human, UniProt P20138 18-364)
Method: as §1, §2

human CD33 R286A = human CD33 R286A (human, UniProt P20138 18-364)
Method: as §1, §2

human CD33 K312A = human CD33 K312A (human, UniProt P20138 18-364)
Method: as §1, §2

Binder	Mean % WT Binding (human CD33 S314A) [% WT binding]	Mean % WT Binding (human CD33 F280A) [% WT binding]	Mean % WT Binding (human CD33 K315A) [% WT binding]	Mean % WT Binding (human CD33 A328S) [% WT binding]	Mean % WT Binding (human CD33 E336A) [% WT binding]	Mean % WT Binding (human CD33 T320A) [% WT binding]	Mean % WT Binding (human CD33 S307A) [% WT binding]	Mean % WT Binding (human CD33 T331A) [% WT binding]	Mean % WT Binding (human CD33 A306S) [% WT binding]	Mean % WT Binding (human CD33 T303A) [% WT binding]	Mean % WT Binding (human CD33 L316A) [% WT binding]	Mean % WT Binding (human CD33 N344A) [% WT binding]	Mean % WT Binding (human CD33 C276A) [% WT binding]	Mean % WT Binding (human CD33 P308A) [% WT binding]	Mean % WT Binding (human CD33 S323A) [% WT binding]	Mean % WT Binding (human CD33 R291A) [% WT binding]	Mean % WT Binding (human CD33 K313A) [% WT binding]	Mean % WT Binding (human CD33 A329S) [% WT binding]	Mean % WT Binding (human CD33 S324A) [% WT binding]	Mean % WT Binding (human CD33 E321A) [% WT binding]	also measured
B1	96.3	106	99.2	94	102	100	116	90.9	99.2	95.5	90.5	67.7	100	103	106	104	102	92.8	97.1	111	Mean % WT Binding (human CD33 H310A): 94.9 % WT binding; Mean % WT Binding (human CD33 R287A): 71.5 % WT binding; Mean % WT Binding (human CD33 T322A): 110 % WT binding; Mean % WT Binding (human CD33 Q311A): 88.7 % WT binding; Mean % WT Binding (human CD33 V282A): 108 % WT binding; Mean % WT Binding (human CD33 D335A): 98.2 % WT binding; Mean % WT Binding (human CD33 A290S): 108 % WT binding; Mean % WT Binding (human CD33 V332A): 100 % WT binding; Mean % WT Binding (human CD33 E337A): 105 % WT binding; Mean % WT Binding (human CD33 K283A): 88.6 % WT binding; Mean % WT Binding (human CD33 T284A): 105 % WT binding; Mean % WT Binding (human CD33 T299A): 104 % WT binding; Mean % WT Binding (human CD33 I281A): 104 % WT binding; Mean % WT Binding (human CD33 C274A): 92.3 % WT binding; Mean % WT Binding (human CD33 R286A): 95.6 % WT binding; Mean % WT Binding (human CD33 K312A): 94.5 % WT binding
B2	112	124	112	105	90.5	121	83	88.1	88.5	82.4	79.5	87.9	95.4	73.5	113	103	118	124	96.6	96.2	Mean % WT Binding (human CD33 H310A): 91.3 % WT binding; Mean % WT Binding (human CD33 R287A): 97.1 % WT binding; Mean % WT Binding (human CD33 T322A): 100 % WT binding; Mean % WT Binding (human CD33 Q311A): 126 % WT binding; Mean % WT Binding (human CD33 V282A): 112 % WT binding; Mean % WT Binding (human CD33 D335A): 86.2 % WT binding; Mean % WT Binding (human CD33 A290S): 118 % WT binding; Mean % WT Binding (human CD33 V332A): 71.6 % WT binding; Mean % WT Binding (human CD33 E337A): 114 % WT binding; Mean % WT Binding (human CD33 K283A): 82.9 % WT binding; Mean % WT Binding (human CD33 T284A): 103 % WT binding; Mean % WT Binding (human CD33 T299A): 91.1 % WT binding; Mean % WT Binding (human CD33 I281A): 115 % WT binding; Mean % WT Binding (human CD33 C274A): 87.4 % WT binding; Mean % WT Binding (human CD33 R286A): 97.5 % WT binding; Mean % WT Binding (human CD33 K312A): 94.7 % WT binding
